Test results published in patent US20130102527A1.

Tests used:
Experiment in all cases: cell-based or functional assay
[1] = target: chymotrypsin-like site (β5 subunit) of yeast 20S proteasome (S. cerevisiae) (UniProt P30656)
[2] = target: proteasome β2 subunit (trypsin-like site) in human cells and cell extracts (human) (UniProt Q99436)
[3] = target: proteasome β5 subunit (chymotrypsin-like site) in human cells and cell extracts (human) (UniProt P28074)
[4] = target: trypsin-like site (β2 subunit) of yeast 20S proteasome (S. cerevisiae) (UniProt P25043)
trypsin-like site (β2 subunit) of yeast 20S proteasome (S. cerevisiae), sequence (P25043 30-261): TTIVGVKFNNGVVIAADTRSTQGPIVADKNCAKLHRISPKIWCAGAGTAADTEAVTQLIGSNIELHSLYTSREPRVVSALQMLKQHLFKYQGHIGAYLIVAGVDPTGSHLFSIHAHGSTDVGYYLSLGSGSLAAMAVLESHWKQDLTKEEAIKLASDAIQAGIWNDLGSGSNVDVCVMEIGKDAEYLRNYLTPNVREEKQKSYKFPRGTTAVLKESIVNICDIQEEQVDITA

[5] = target: caspase-like site (β1 subunit) of 26S proteasomes purified from rabbit muscle (rabbit)
[6] = target: chymotrypsin-like site (β5 subunit) of 26S proteasomes purified from rabbit muscle (rabbit) (UniProt G1T4Q9)
chymotrypsin-like site (β5 subunit) of 26S proteasomes purified from rabbit muscle (rabbit), sequence (G1T4Q9 entry or part of it): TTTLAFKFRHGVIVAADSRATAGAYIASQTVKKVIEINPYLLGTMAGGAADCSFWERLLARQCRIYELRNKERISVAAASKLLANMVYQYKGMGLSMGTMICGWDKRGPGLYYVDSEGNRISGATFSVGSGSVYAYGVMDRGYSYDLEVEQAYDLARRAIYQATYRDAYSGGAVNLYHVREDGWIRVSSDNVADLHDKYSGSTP

[7] = target: trypsin-like site (β2 subunit) of 26S proteasomes purified from rabbit muscle (rabbit) (UniProt G1SWK8)
trypsin-like site (β2 subunit) of 26S proteasomes purified from rabbit muscle (rabbit), sequence (G1SWK8 entry or part of it): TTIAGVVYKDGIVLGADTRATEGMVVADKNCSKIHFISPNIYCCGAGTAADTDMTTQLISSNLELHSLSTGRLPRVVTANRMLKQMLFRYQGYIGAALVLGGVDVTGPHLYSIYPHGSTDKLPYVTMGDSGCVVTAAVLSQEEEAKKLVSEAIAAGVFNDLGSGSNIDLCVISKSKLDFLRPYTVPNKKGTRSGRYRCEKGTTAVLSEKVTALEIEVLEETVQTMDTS

[8] = target: proteasome β1 subunit (caspase-like site) in human cells and cell extracts (human) (UniProt P28072)
proteasome β1 subunit (caspase-like site) in human cells and cell extracts (human), sequence (P28072 35-239): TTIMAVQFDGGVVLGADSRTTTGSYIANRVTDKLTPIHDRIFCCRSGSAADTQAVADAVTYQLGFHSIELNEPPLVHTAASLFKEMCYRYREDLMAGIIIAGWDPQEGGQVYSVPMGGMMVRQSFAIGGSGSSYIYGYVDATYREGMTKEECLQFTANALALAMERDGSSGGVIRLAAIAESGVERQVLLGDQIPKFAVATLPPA

proteasome β5 subunit (chymotrypsin-like site) in human cells and cell extracts (human), sequence (P28074 60-263): as the sequence (G1T4Q9 entry or part of it) above, with D197E counted along it
proteasome β2 subunit (trypsin-like site) in human cells and cell extracts (human), sequence (Q99436 44-277): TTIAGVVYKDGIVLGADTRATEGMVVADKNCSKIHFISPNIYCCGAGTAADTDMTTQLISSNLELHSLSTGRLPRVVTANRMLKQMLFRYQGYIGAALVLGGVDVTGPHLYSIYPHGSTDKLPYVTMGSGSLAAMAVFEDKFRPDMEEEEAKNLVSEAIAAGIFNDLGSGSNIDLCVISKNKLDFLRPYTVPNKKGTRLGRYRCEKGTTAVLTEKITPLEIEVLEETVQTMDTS
chymotrypsin-like site (β5 subunit) of yeast 20S proteasome (S. cerevisiae), sequence (P30656 76-287): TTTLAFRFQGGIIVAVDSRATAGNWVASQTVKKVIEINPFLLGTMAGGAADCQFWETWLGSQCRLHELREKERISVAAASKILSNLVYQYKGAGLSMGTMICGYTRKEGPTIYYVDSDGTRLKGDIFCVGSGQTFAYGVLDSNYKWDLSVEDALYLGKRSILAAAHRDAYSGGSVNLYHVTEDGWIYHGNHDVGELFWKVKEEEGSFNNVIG

Substance: HMB-Val-Ser-Phe(4-CH2NH2)-VS (48) (peptide)
- IC50 (µM) for yeast 20S proteasome: Chym-L [1]: 19.3 µM
- IC50 (µM) for sites: Tr-L; NCI-H929 cells, 6 h, PROTEASOMEGLO [2]: 0.2 µM
- IC50 (µM) for sites: Tr-L; RPMI-8226 cells, 6 h, PROTEASOMEGLO [2]: 3.2 µM
- IC50 (µM) for sites: Chym-L; NCI-H929 cells, 6 h, PROTEASOMEGLO [3]: 13 µM
- IC50 (µM) for sites: Chym-L; RPMI-8226 cells, 6 h, PROTEASOMEGLO [3]: 15 µM
- IC50 (µM) for yeast 20S proteasome: Tr-L [4]: 1.6 µM

Substance: HMB-Val-Ser-Phe(4-NH2)-VS (49) (peptide)
- IC50 (µM) for sites in 26S proteasomes: Casp-L [5]: 23 µM
- IC50 (µM) for sites in 26S proteasomes: Chym-L [6]: 0.04 µM
- IC50 (µM) for sites in 26S proteasomes: Tr-L [7]: 0.11 µM

Substance: LU-005 (peptide)
- Inhibition of active sites (% control): β2; KMS-12-BM, 0.012 µM LU-005, 1 h [2]: -21%
- Inhibition of active sites (% control): β2; KMS-12-BM, 0.037 µM LU-005, 1 h [2]: -12%
- Inhibition of active sites (% control): β2; KMS-12-BM, 0.11 µM LU-005, 1 h [2]: 4.7%
- Inhibition of active sites (% control): β2; KMS-12-BM, 0.33 µM LU-005, 1 h [2]: 3%
- Inhibition of active sites (% control): β2; KMS-12-BM, 1.0 µM LU-005, 1 h [2]: 29%
- Inhibition of active sites (% control): β2; KMS-18, 0.037 µM LU-005, 1 h [2]: -13%
- Inhibition of active sites (% control): β2; KMS-18, 0.11 µM LU-005, 1 h [2]: 12%
- Inhibition of active sites (% control): β2; KMS-18, 0.33 µM LU-005, 1 h [2]: 24%
- Inhibition of active sites (% control): β2; KMS-18, 1.0 µM LU-005, 1 h [2]: 38%
- Inhibition of active sites (% control): β2; KMS-18, 3.0 µM LU-005, 1 h [2]: 50%
- Inhibition of active sites (% control): β2; KMS-18, 9.0 µM LU-005, 1 h [2]: 62%
- Inhibition of active sites (% control): β2; MM1.R, 0.004 µM LU-005, 1 h [2]: 6.5%
- Inhibition of active sites (% control): β2; MM1.R, 0.011 µM LU-005, 1 h [2]: 5%
- Inhibition of active sites (% control): β2; MM1.R, 0.043 µM LU-005, 1 h [2]: 5%
- Inhibition of active sites (% control): β2; MM1.R, 0.11 µM LU-005, 1 h [2]: 23%
- Inhibition of active sites (% control): β2; NCI-H929, 0.0014 µM LU-005, 1 h [2]: -9%
- Inhibition of active sites (% control): β2; NCI-H929, 0.004 µM LU-005, 1 h [2]: -13%
- Inhibition of active sites (% control): β2; NCI-H929, 0.011 µM LU-005, 1 h [2]: -6%
- Inhibition of active sites (% control): β2; NCI-H929, 0.043 µM LU-005, 1 h [2]: 6%
- Inhibition of active sites (% control): β2; NCI-H929, 0.11 µM LU-005, 1 h [2]: 11%
- Inhibition of active sites (% control): β2; RPMI-8226, 0.012 µM LU-005, 1 h [2]: -21%
- Inhibition of active sites (% control): β2; RPMI-8226, 0.037 µM LU-005, 1 h [2]: 1%
- Inhibition of active sites (% control): β2; RPMI-8226, 0.11 µM LU-005, 1 h [2]: 3%
- Inhibition of active sites (% control): β2; RPMI-8226, 0.33 µM LU-005, 1 h [2]: 13%
- Inhibition of active sites (% control): β2; RPMI-8226, 1.0 µM LU-005, 1 h [2]: 22%
- Inhibition of active sites (% control): β5; KMS-12-BM, 0.012 µM LU-005, 1 h [3]: 16%
- Inhibition of active sites (% control): β5; KMS-12-BM, 0.037 µM LU-005, 1 h [3]: 48%
- Inhibition of active sites (% control): β5; KMS-12-BM, 0.11 µM LU-005, 1 h [3]: 56%
- Inhibition of active sites (% control): β5; KMS-12-BM, 0.33 µM LU-005, 1 h [3]: 81%
- Inhibition of active sites (% control): β5; KMS-12-BM, 1.0 µM LU-005, 1 h [3]: 95%
- Inhibition of active sites (% control): β5; KMS-18, 0.037 µM LU-005, 1 h [3]: 14%
- Inhibition of active sites (% control): β5; KMS-18, 0.11 µM LU-005, 1 h [3]: 47%
- Inhibition of active sites (% control): β5; KMS-18, 0.33 µM LU-005, 1 h [3]: 69%
- Inhibition of active sites (% control): β5; KMS-18, 1.0 µM LU-005, 1 h [3]: 85%
- Inhibition of active sites (% control): β5; KMS-18, 3.0 µM LU-005, 1 h [3]: 94%
- Inhibition of active sites (% control): β5; KMS-18, 9.0 µM LU-005, 1 h [3]: 97%
- Inhibition of active sites (% control): β5; MM1.R, 0.004 µM LU-005, 1 h [3]: 17%
- Inhibition of active sites (% control): β5; MM1.R, 0.011 µM LU-005, 1 h [3]: 31%
- Inhibition of active sites (% control): β5; MM1.R, 0.043 µM LU-005, 1 h [3]: 54%
- Inhibition of active sites (% control): β5; MM1.R, 0.11 µM LU-005, 1 h [3]: 76%
- Inhibition of active sites (% control): β5; NCI-H929, 0.0014 µM LU-005, 1 h [3]: 22%
- Inhibition of active sites (% control): β5; NCI-H929, 0.004 µM LU-005, 1 h [3]: 22%
- Inhibition of active sites (% control): β5; NCI-H929, 0.011 µM LU-005, 1 h [3]: 48%
- Inhibition of active sites (% control): β5; NCI-H929, 0.043 µM LU-005, 1 h [3]: 72%
- Inhibition of active sites (% control): β5; NCI-H929, 0.11 µM LU-005, 1 h [3]: 86%
- Inhibition of active sites (% control): β5; RPMI-8226, 0.012 µM LU-005, 1 h [3]: 16%
- Inhibition of active sites (% control): β5; RPMI-8226, 0.037 µM LU-005, 1 h [3]: 45%
- Inhibition of active sites (% control): β5; RPMI-8226, 0.11 µM LU-005, 1 h [3]: 49%
- Inhibition of active sites (% control): β5; RPMI-8226, 0.33 µM LU-005, 1 h [3]: 62%
- Inhibition of active sites (% control): β5; RPMI-8226, 1.0 µM LU-005, 1 h [3]: 82%
- Inhibition of active sites (% control): β1; KMS-12-BM, 0.012 µM LU-005, 1 h [8]: -34%
- Inhibition of active sites (% control): β1; KMS-12-BM, 0.037 µM LU-005, 1 h [8]: -1%
- Inhibition of active sites (% control): β1; KMS-12-BM, 0.11 µM LU-005, 1 h [8]: 3%
- Inhibition of active sites (% control): β1; KMS-12-BM, 0.33 µM LU-005, 1 h [8]: 6%
- Inhibition of active sites (% control): β1; KMS-12-BM, 1.0 µM LU-005, 1 h [8]: 11%
- Inhibition of active sites (% control): β1; KMS-18, 0.037 µM LU-005, 1 h [8]: 0%
- Inhibition of active sites (% control): β1; KMS-18, 0.11 µM LU-005, 1 h [8]: 21%
- Inhibition of active sites (% control): β1; KMS-18, 0.33 µM LU-005, 1 h [8]: 29%
- Inhibition of active sites (% control): β1; KMS-18, 1.0 µM LU-005, 1 h [8]: 32%
- Inhibition of active sites (% control): β1; KMS-18, 3.0 µM LU-005, 1 h [8]: 39%
- Inhibition of active sites (% control): β1; KMS-18, 9.0 µM LU-005, 1 h [8]: 42%
- Inhibition of active sites (% control): β1; MM1.R, 0.004 µM LU-005, 1 h [8]: 6%
- Inhibition of active sites (% control): β1; MM1.R, 0.011 µM LU-005, 1 h [8]: 3%
- Inhibition of active sites (% control): β1; MM1.R, 0.043 µM LU-005, 1 h [8]: 6%
- Inhibition of active sites (% control): β1; MM1.R, 0.11 µM LU-005, 1 h [8]: 27%
- Inhibition of active sites (% control): β1; NCI-H929, 0.0014 µM LU-005, 1 h [8]: -14%
- Inhibition of active sites (% control): β1; NCI-H929, 0.004 µM LU-005, 1 h [8]: -7%
- Inhibition of active sites (% control): β1; NCI-H929, 0.011 µM LU-005, 1 h [8]: 5.5%
- Inhibition of active sites (% control): β1; NCI-H929, 0.043 µM LU-005, 1 h [8]: 15%
- Inhibition of active sites (% control): β1; NCI-H929, 0.11 µM LU-005, 1 h [8]: 6%
- Inhibition of active sites (% control): β1; RPMI-8226, 0.012 µM LU-005, 1 h [8]: -34%
- Inhibition of active sites (% control): β1; RPMI-8226, 0.037 µM LU-005, 1 h [8]: 16%
- Inhibition of active sites (% control): β1; RPMI-8226, 0.11 µM LU-005, 1 h [8]: 23%
- Inhibition of active sites (% control): β1; RPMI-8226, 0.33 µM LU-005, 1 h [8]: 37%
- Inhibition of active sites (% control): β1; RPMI-8226, 1.0 µM LU-005, 1 h [8]: 37%
